Molecular target: phospho-Ser 2 carboxy-terminal domain (CTD) RNA polymerase II (human (endogenous in hSAECs)), P24928
Test: proximity ligation; Duolink in situ PLA, mouse anti-IRF1 and rabbit anti-pSer2 Pol II Abs, fixed and permeabilized hSAECs, mock or RSV infected (MOI 1, 24 h), solvent
Conditions: remark: other sources report otherwise

B1: interferon regulatory factor 1 (IRF1), P10914 1-325 (natural protein)
chain: MPITRMRMRPWLEMQINSNQIPGLIWINKEEMIFQIPWKHAAKHGWDINKDACLFRSWAIHTGRYKAGEKEPDPKTWKANFRCAMNSLPDIEEVKDQSRNKGSSAVRVYRMLPPLTKNQRKERKSKSSRDAKSKAKRKSCGDSSPDTFSDGLSSSTLPDDHSSYTVPGYMQDLEVEQALTPALSPCAVSSTLPDWHIPVEVVPDSTSDLYNFQVSPMPSTSEATTDEDEEGKLPEDIMKLLEQSEWQPTNVDGKGYLLNEPGVQPTSVYGDFSCKEEPEIDSPGGDIGLSLQRVFTDLKNMDATWLDSLLTPVRLPSIQAIPCAP
modifications: here or on the partner: phospho-Ser 2 of the carboxy-terminal domain (CTD)
PLA foci/nucleus (RSV infected): 24 foci/nucleus
PLA foci/nucleus (mock infected): 6.3 foci/nucleus
fold increase of PLA complex, RSV against mock: 25 fold
percent of cells with PLA complexes (uninfected): > 90 % of cells
